# Source: the nanobody polyreactivity screen of Harvey et al. (2022)
# Test: yeast display, Sf9 membrane polyspecificity reagent, FACS + sequencing; frameworks hold sequencing errors
# Summary of the method: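 Galactose induction of a Saccharomyces cerevisiae BJ5465 synthetic nanobody display library ran 36–48 hours. The cells were then stained for 1 hour at 4 °C with 10% biotinylated, detergent-solubilized Sf9 membrane reagent, pulled down on streptavidin microbeads and FACS-sorted into low and high (top ~1%) gates on expression and reagent-binding fluorescence. Labels for polyreactivity follow the gate of origin.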
row,Sequence,polyreactivity (PSR sort gate)
1,QVQLVESGGGLVQAGGSLRLSCAASGITLYRYVMGWYRQAPGKERELVADISGRGTSTYYADSVKGRFTISRDNAKNTVYLQMNSLKPEDTAVYYCNAEYTKTGAQREQSFLTRRGPGYDYWGQVTQVTVSS,low polyreactivity
2,QVQLVESGGGLVQAGGSLRLSCAASGITLYYYAMGWYRQAPGKERELVAAISTSGGTTYYADSVKGRFTISRDNAKYTVYLQMNSLKPEDTAVYYCAARRRAFGSTYNYWGQGTQVTVSS,high polyreactivity
3,QVQLVESGGGLVQAGGSLRLSCAASGITQYGYAMGWYRQAPGKEREFVAAISRSGDRTYYADSVKGRYTISRDNAKNTVYLQLNSLKPEDTAVYYCNAWRYDYWGQGTQVTVSS,high polyreactivity
4,QVQLVESGGGLVQAGGSLRLSCAASGITSRYYAMGWYRQAPGKERELVAAITSDGRTNYADSVKGRFTISRDNAKNTVYLQMNSLKPEETAVYYCAVARYPYRYDYWGQGTQVTVSS,high polyreactivity
5,QVQLVESGGGLVQAGGSLRLSCAASGITSSYAMGWYRQAPGKERELVAAISRGGSTYYADSVKGRFTISRDTAKNTVYLQMNSLKPEDTAVYYCNKRRYPYGWGQGTQVTVSS,high polyreactivity
6,QVQLVESGGGLVQAGGSLRLSCAASGITYFEYAMGWYRQATGKETELVAGIRFSGSTTYYADSVKGRFTISRDNAKNTVYLQMNSLKPEDTAVYYCNVDYYSGLYDYDSWGQGTQVTVSS,low polyreactivity
7,QVQLVESGGGLVQAGGSLRLSCAASGITYGYNTMGWYRQAPGKERELVADISRSGGRTYYADSVKARFTISRDNAKNTVYLQMNSLKPEDTAVYYCAAVSNSGHYYYWGQGTQVTVSS,high polyreactivity
8,QVQLVESGGGLVQAGGSLRLSCAASGITYSYYAMGWYRQAPGKEREFVAAISRTGTSTYYADSVKGRFTISRDNAKNTVYLQMNSLNPEDTADYFCAAVPRHPYHDKYDYWGQGTQVTVSS,high polyreactivity
9,QVQLVESGGGLVQAGGSLRLSCAASGIWNMGWYRQAPGKERELVAAISWSGASTYYADSVKGRFTISRDNAKNTVYLQMNSLKPEDTAVYYCALGFWHTYGYWGQGTQVTVSS,high polyreactivity
10,QVQLVESGGGLVQAGGSLRLSCAASGLFFYAYSMGWYRQAPAKERELVAAISGSGGNTYYADSVKGRFTISRDNAKNSVYLQMNSLKQEDTAVYYCAADYTAAYPDSMYYWGQGTQVTVSS,low polyreactivity
11,QVQLVESGGGLVQAGGSLRLSCAASGLIFAEYTMGWYRQAPGKERELVAAISWNGGSTYYADSVKGRFTISRDNAKNTVYLQMNSLKPEDTAVYYCAARYKRVKWYRYEYWGQGTQVTVSS,high polyreactivity
12,QVQLVESGGGLVQAGGSLRLSCAASGLIFAFYAMGWYRQAPVKERELVASIDKSGGSTYADSVKGRFTISRDNAKNTVYLQMNSLKQEDTAVYYCAADYSLIDLFYWGQGTQVTVSS,low polyreactivity
13,QVQLVESGGGLVQAGGSLRLSCAASGLIFAGYAMGWYRQAPGKERELVAAITWRGGRTYADSVKGRFTISRDNAKNTVYLQMNSLKPEDTAVFYCAVRRWGTSFVEDDYWGQGTQVTVSS,low polyreactivity
14,QVQLVESGGGLVQAGGSLRLSCAASGLIFASYAMGWYRQAPGKERELVAAISWSGGSTYYADSVKGRFTISRDNAKNTVYLQMNSLKPEDTAVYYCAARKLFIPKYYYWGQGTQVTVSS,high polyreactivity
15,QVQLVESGGGLVQAGGSLRLSCAASGLIFATYTMGWYRQAPGKERELVAAITWSGGRTYYADSVKGRFTISRDNAKNTVYLQMNSLKPEDTAVYYCAADPSYALGYDYWGQGTQVTVSS,high polyreactivity
16,QVQLVESGGGLVQAGGSLRLSCAASGLIFAYNTMGWYRQAPGKERELVAGITSGGSTYYADSVKGRFTISRDNAKNTVYLQMNSLKPEDTAVYYCAAAYRTGSVSFGYWGQGTQVTVSS,high polyreactivity
17,QVQLVESGGGLVQAGGSLRLSCAASGLIFDGNAMGWYRPAPGKERELVADITGSSVRTYYADSVKGRFTISRDNAKNTVSLQMNSLIPEDTAVYYCAATYGYLYTGLSRYDYWGQGTQVTVSS,low polyreactivity
18,QVQLVESGGGLVQAGGSLRLSCAASGLIFDPNTMGWYRQAPGKERELVAAISSGGDTNYADSVKGRFTISRDNAKNTVYLQMNSLKPEDTAVYYCATDIRFHDPSEYEGVDFEFWGQGTQVTVSS,low polyreactivity
19,QVQLVESGGGLVQAGGSLRLSCAASGLIFDSYDMGGSRQAPGKERELVAAIRRNGGSTYYADSLKGRFTISRDNAKNTVYLQMNSLIPEDTEVYYCAVDNSGYSGVYWVKMDYWGQGTQVTVSS,low polyreactivity
20,QVQLVESGGGLVQAGGSLRLSCAASGLIFDTNAMGWYRQAPGKERELVAAISLDGGSTYYADSVKGRFTISRDNAKNTVYLQMNSLKPEDTAVYYCNADYYANSITYDSWGQGTQVTVSS,low polyreactivity
21,QVQLVESGGGLVQAGGSLRLSCAASGLIFDTYAMGWYRQAPGKERELVADITWSGGSTYYADSVKGRFTISRDNAKNTVYLQMNSLKPEDTAVYYCAADSVSLFYWDQRYPDEYDYWGQGTQVTVSS,low polyreactivity
22,QVQLVESGGGLVQAGGSLRLSCAASGLIFESYVMGWYRQAPGKERELVAAIRSSGGSTYYADSVKGRFTISRDNAKNTVYLQMNSLKPEVTAVYYCSVKGYGEYDYWGQGTQVTVSS,low polyreactivity

row,Sequence,polyreactivity (PSR sort gate)
1,QVQLVESGGGLVQAGGSLRLSCAASGLIFEYYAMGWYRQAPGKERELGAAISGSGGSTYYADSVKGRFTISRDNAKNTVSLQMNSRKPEDTAVDYCNVVGYRWSEFDYWGQGTQVTVSS,low polyreactivity
2,QVQLVESGGGLVQAGGSLRLSCAASGLIFFHNGMGWYRQAPGKEREFVAVISSSGGSTYYADSVKGRFTISRDNAKNTVYLQMNSLKPEDTAVYYCAARDYSRRYGYWGQGTQVTVSS,high polyreactivity
3,QVQLVESGGGLVQAGGSLRLSCAASGLIFFTYAMGWYRHAPGKERELVATISRGGRTKYADSVKGRFTISRDNAKNTVYLQMNSLKPEDTAVYYCAAYLSRSYYAYDYWGQGTQVTVSS,high polyreactivity
4,QVQLVESGGGLVQAGGSLRLSCAASGLIFFYYPMGWYRQAPGKEWEMVAAIRTNYADSVKGRFTISRDNAKNTVDLQMYSLKREDTADYYCAAESSQTPTSAFDYWGQGTQVTVSS,low polyreactivity
5,QVQLVESGGGLVQAGGSLRLSCAASGLIFGPYAMGWYRQAPGKERELDAAITSSGGSTYNADSVKGRFTISRDNAKKSVYLQMNSLKPEDTAVYYCAARGSPRYYARYNYWGQGTQVTVSS,low polyreactivity
6,QVQLVESGGGLVQAGGSLRLSCAASGLIFGRNAMGWYRQAPGKERELVAAITSGGSTYYADSVKGRFTISRDNAKNTVYLQMNSLKPEDTAVYYCFVDYYPYDYWGQGTQVTVSS,low polyreactivity
7,QVQLVESGGGLVQAGGSLRLSCAASGLIFGRYAMGWYRQAPGKERELVAAINRNGGSTYYADSVKGRFTISRDNAKNTVYLQMNSLKPEDTAVYYCAAQYRSSRGHYDYWGQGTQVTVSS,high polyreactivity
8,QVQLVESGGGLVQAGGSLRLSCAASGLIFGRYAMGWYRQAPGKERELVAAISSSGVRTYYADSVKGRFTISRDNAKNTVYLQMNSLNPEDTAVYYCAAYDWYISEDYRYYYFWEYDYWGQGTQVTVSS,high polyreactivity
9,QVQLVESGGGLVQAGGSLRLSCAASGLIFGSYVMGWYRQAPGKERELVAAISSSGGSTYYADSVKVRFTISRDNENNTFYLQMNSLKPEDTAVYYCAARYTYSADKGYYWGQGTQVTVSS,high polyreactivity
10,QVQLVESGGGLVQAGGSLRLSCAASGLIFGVNAMGWYRQAPGKERELVAGISGSTGSTYYADSVKGRFTISRDNAKNTLYVQMNSLKPEDSAVYYCAKRSRRRGYRYDYWGQGTQVTVSS,high polyreactivity
11,QVQLVESGGGLVQAGGSLRLSCAASGLIFGWYAMGWDRQAPGKERELVAAITRSGGSTYYADSVKGRFTISRDTAKNTVYLQMHSLKPEDTAVYSCAAEIHYSYTRGYGYWGQGTQVTVSS,high polyreactivity
12,QVQLVESGGGLVQAGGSLRLSCAASGLIFGWYAMGWYRQAPGKERELVAAITRSGGSTYYADSVKGRFTISRDNAKNTVYLQMNSLKPEDTAVYYCAARSYVPSYDYWGQGTQVTVSS,high polyreactivity
13,QVQLVESGGGLVQAGGSLRLSCAASGLIFGWYAMGWYRQAPGKERELVAGISGSGGITYYADSVKGRFTISRDNAKNTVYLQMNSLKPEDTAVYYCATAAASHKYGYWGQGTQVTVSS,low polyreactivity
14,QVQLVESGGGLVQAGGSLRLSCAASGLIFGYNAMGWYRQAPGKEREFVAGISSSGVSTYYADSVKGRFTISRDNAKNTVYLQMNSLKPEDTAVYYCAADTVDLEFDYWGQGTQVTVSS,low polyreactivity
15,QVQLVESGGGLVQAGGSLRLSCAASGLIFGYYAMGWYRQAPGKEREFVAAIDGSDGTTYYADSVKGRFTISRDNAKNTVYLQMTSQKPEDTAVYYCNADSSSYSSDLGYDYWGQGTQVTVSS,low polyreactivity
16,QVQLVESGGGLVQAGGSLRLSCAASGLIFGYYAMGWYRQAPGKERELVARITRRGGSTYYADSVKGRFTISRDNAKNTVYLQRNSLKPEDTAVYYCAADWYSPRISREYDYWGQGTQVTVSS,high polyreactivity
17,QVQLVESGGGLVQAGGSLRLSCAASGLIFHSYAMGWYRQAPGKERELVAAISKRGGSTYYADSVKGRFTISRDNAKNTVYLQMNSLKPEDTAVYYCAAGARGLYDYWGQGTQVTVSS,high polyreactivity
18,QVQLVESGGGLVQAGGSLRLSCAASGLIFIFNTMGWYRQAPGKERELVAAISWSGTSTYYADSVKGRFTISRDNAKNTVYLQMHSLKPEDTAVYYCAARGYYYKYSTARRNYWGQGTQVTVSS,high polyreactivity
19,QVQLVESGGGLVQAGGSLRLSCAASGLIFIIYTMGWYRQAPGKERELVAAITRRGGITYYADSVKGRFTISRDYAKNTVYLQMNSLKPEDTAVYYCAVVRPYNIWYDYWGQGTQVTVSS,low polyreactivity
20,QVQLVESGGGLVQAGGSLRLSCAASGLIFKFYPMGWYRQAPGKERELVASIRGSGDNTYYADSVKGRFTISRDNAKNTVYLQMNSLKPEDTAVYYCNARASYSWHGIRGKYDYWGQGTQVTVSS,high polyreactivity
21,QVQLVESGGGLVQAGGSLRLSCAASGLIFKGYDMGWYRQAPGKERELVAAISSGSTNYADSVKGRFTISRDNAKNTGYLQMNSLKPEDTAVYYCNADLGRATFYQRVFIERGGYWGQGTQVTVSS,low polyreactivity
